Assay results as given in patent US20190071490A1, “Preventing Post-Ictal Headaches” (Beth Israel Deaconess Medical Center, Inc., priority 2017, published 2019).

T1: human α-CGRP (Homo sapiens, UniProt P06881)
T1 construct: 1-37 (WT); purchased GenScript Corporation or Global Peptide Services
T1 sequence (P06881 83-119 limits assumed): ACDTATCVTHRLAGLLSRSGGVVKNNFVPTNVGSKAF

T2: rat α-CGRP (Rattus norvegicus, UniProt P01256)
T2 construct: rat α (1-37); purchased GenScript Corporation or Global Peptide Services
T2 sequence (P01256 83-119 limits assumed): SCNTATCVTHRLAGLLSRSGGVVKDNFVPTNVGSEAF


How the values were obtained:
human α-CGRP = biological target: T1, human α-CGRP; assay: Biacore SPR affinity of Fab fragments to N-biotinylated human α-CGRP on SA chip; type: binding; conditions: 37° C., screening mode except underlined values
Procedure: (§1) Affinity determination of the Fabs. Affinities of the anti-CGRP monoclonal antibodies were determined at either 25° C. or 37° C. using the BIACORE3000™ surface plasmon resonance (SPR) system (Biacore, INC, Piscataway N.J.) with the manufacture's own running buffer, HBS-EP (10 mM HEPES pH 7.4, 150 mM NaCl, 3 mM EDTA, 0.005% v/v polysorbate P20). Affinity was determined by capturing N-terminally biotinylated CGRP peptides (custom ordered from GenScript Corporation, New Jersey or Global Peptide Services, Colorado) via pre-immobilized streptavidin on SA chip and measuring binding kinetics of antibody Fab titrated across the CGRP surface. Biotinylated CGRP was diluted into HBS-EP and injected over the chip at a concentration of less than 0.001 mg/ml. Using variable flow time across the individual chip channels, two ranges of antigen density were achieved: <50 response units (RU) for detailed kinetic studies and about 800 RU for concentration studies and screening. […] After each binding cycle, surfaces were regenerated with 25 mM NaOH in 25% v/v ethanol, which was tolerated over hundreds of cycles. Kinetic association rate (kon) and dissociation rate (koff) were obtained simultaneously by fitting the data to a 1:1 Langmuir binding model (Karlsson et al. (1994). Methods Enzymology 6. 99-110) using the BIAevaluation program. Global equilibrium dissociation constants (KD) or “affinities” were calculated from the ratio KD=koff/kon.
(§2) Biacore assay for affinity determination. […] All Biacore assays were conducted in HBS-EP running buffer (10 mM HEPES pH 7.4, 150 mM NaCl, 3 mM EDTA, 0.005% v/v polysorbate P20). CGRP surfaces were prepared by diluting the N-biotinylated CGRP to a concentration of less than 0.001 mg/mL into HBS-EP buffer and injecting it across the SA sensor chip using variable contact times. Low capacity surfaces, corresponding to capture levels <50 response units (RU) were used for high-resolution kinetic studies, whereas high capacity surfaces (about 800 RU of captured CGRP) were used for concentration studies, screening, and solution affinity determinations. […] Samples were typically injected for 1 minute at 100 μL/min and dissociation times of at least 10 minutes were allowed. After each binding cycle, surfaces were regenerated with 25 mM NaOH in 25% v/v ethanol, which was tolerated over hundreds of cycles. An entire titration series (typically generated in duplicate) was fit globally to a 1:1 Langmuir binding model using the BIAevaluation program. This returned a unique pair of association and dissociation kinetic rate constants (respectively, kon and koff) for each binding interaction, whose ratio gave the equilibrium dissociation constant (KD=koff/kon).
(§3) High-resolution analysis of binding interactions with extremely slow off rates. […] The protocol described above was used with the following modifications. The association rate constant (kon) was determined by injecting a 2-fold titration series (in duplicate) spanning 550 nM-1 nM for 30 seconds at 100 μL/min and allowing only a 30 second dissociation phase. The dissociation rate constant (koff) was determined by injecting three concentrations (high, medium, and low) of the same titration series in duplicate for 30 seconds and allowing a 2-hour dissociation phase. The affinity (KD) of each interaction was obtained by combining the kon and koff values obtained in both types of experiments, as shown in Table 4.

rat α-CGRP = biological target: T2, rat α-CGRP; assay: Biacore SPR affinity of Fab fragments to N-biotinylated rat α-CGRP on SA chip; type: binding; conditions: 37° C., screening mode except underlined values
Procedure: as §1, §2, §3

| α-human koff (human α-CGRP) | α-rat koff (rat α-CGRP) | Molecule |
| --- | --- | --- |
| 0.000803 s⁻¹ | 0.00407 s⁻¹ | M65: G1 variant; L1 R28N T30G; L2 G50A L56I; H2 E54K A57C; HC-FW3 L99T A100V (antibody, V domains shown) VH: EVQLVESGGGLVQPGGSLRLSCAASGFTFSNYWISWVRQAPGKGLEWVAEIRSKSDCSATHYAEAVKGRFTISRDNAKNSLYLQMNSLRAEDTAVYYCTVYFDYGLAIQNYWGQGTLVTVSS VL: EIVLTQSPATLSLSPGERATLSCKASKNVGTYVSWYQQKPGQAPRLLIYAASNRYIGIPARFSGSGSGTDFTLTISSLEPEDFAVYYCSQSYNYPYTFGQGTKLEIK |
| 0.00082 s⁻¹ | 0.00171 s⁻¹ | M67: G1 variant; L1 R28N T30G; L2 L561; H2 E54K A57F; HC-FW3 L99T A100V (antibody, V domains shown) VH: EVQLVESGGGLVQPGGSLRLSCAASGFTFSNYWISWVRQAPGKGLEWVAEIRSKSDFSATHYAEAVKGRFTISRDNAKNSLYLQMNSLRAEDTAVYYCTVYFDYGLAIQNYWGQGTLVTVSS VL: EIVLTQSPATLSLSPGERATLSCKASKNVGTYVSWYQQKPGQAPRLLIYGASNRYIGIPARFSGSGSGTDFTLTISSLEPEDFAVYYCSQSYNYPYTFGQGTKLEIK |
| 0.00128 s⁻¹ | 0.00212 s⁻¹ | M71: G1 variant; L1 R28N T30G; L2 L561; H2 E54K A57Y; HC-FW3 L99T A100V (antibody, V domains shown) VH: EVQLVESGGGLVQPGGSLRLSCAASGFTFSNYWISWVRQAPGKGLEWVAEIRSKSDYSATHYAEAVKGRFTISRDNAKNSLYLQMNSLRAEDTAVYYCTVYFDYGLAIQNYWGQGTLVTVSS VL: EIVLTQSPATLSLSPGERATLSCKASKNVGTYVSWYQQKPGQAPRLLIYGASNRYIGIPARFSGSGSGTDFTLTISSLEPEDFAVYYCSQSYNYPYTFGQGTKLEIK |
| 0.000364 s⁻¹ | 0.00116 s⁻¹ | M76: G1 variant; L1 R28N T30S; L2 G50A L56T; H2 A57G; HC-FW3 L99T A100V (antibody, V domains shown) VH: EVQLVESGGGLVQPGGSLRLSCAASGFTFSNYWISWVRQAPGKGLEWVAEIRSESDGSATHYAEAVKGRFTISRDNAKNSLYLQMNSLRAEDTAVYYCTVYFDYGLAIQNYWGQGTLVTVSS VL: EIVLTQSPATLSLSPGERATLSCKASKNVSTYVSWYQQKPGQAPRLLIYAASNRYTGIPARFSGSGSGTDFTLTISSLEPEDFAVYYCSQSYNYPYTFGQGTKLEIK |
| 0.000255 s⁻¹ | 0.003 s⁻¹ | M73: G1 variant; L1 R28N T30G; L2 L56S; H2 E54K A57N S58Y E64D; HC-FW3 L99T A100V (antibody, V domains shown) VH: EVQLVESGGGLVQPGGSLRLSCAASGFTFSNYWISWVRQAPGKGLEWVAEIRSKSDNYATHYADAVKGRFTISRDNAKNSLYLQMNSLRAEDTAVYYCTVYFDYGLAIQNYWGQGTLVTVSS VL: EIVLTQSPATLSLSPGERATLSCKASKNVGTYVSWYQQKPGQAPRLLIYGASNRYSGIPARFSGSGSGTDFTLTISSLEPEDFAVYYCSQSYNYPYTFGQGTKLEIK |
| 0.00052 s⁻¹ | 0.00511 s⁻¹ | M66: G1 variant; L1 R28N T30G; L2 L561; H2 E54K A57E; HC-FW3 L99T A100V (antibody, V domains shown) VH: EVQLVESGGGLVQPGGSLRLSCAASGFTFSNYWISWVRQAPGKGLEWVAEIRSKSDESATHYAEAVKGRFTISRDNAKNSLYLQMNSLRAEDTAVYYCTVYFDYGLAIQNYWGQGTLVTVSS VL: EIVLTQSPATLSLSPGERATLSCKASKNVGTYVSWYQQKPGQAPRLLIYGASNRYIGIPARFSGSGSGTDFTLTISSLEPEDFAVYYCSQSYNYPYTFGQGTKLEIK |
| 0.000597 s⁻¹ | 0.00603 s⁻¹ | M74: G1 variant; L1 R28N T30G; L2 L56S; H2 E54K A57S; HC-FW3 L99T A100V (antibody, V domains shown) VH: EVQLVESGGGLVQPGGSLRLSCAASGFTFSNYWISWVRQAPGKGLEWVAEIRSKSDSSATHYAEAVKGRFTISRDNAKNSLYLQMNSLRAEDTAVYYCTVYFDYGLAIQNYWGQGTLVTVSS VL: EIVLTQSPATLSLSPGERATLSCKASKNVGTYVSWYQQKPGQAPRLLIYGASNRYSGIPARFSGSGSGTDFTLTISSLEPEDFAVYYCSQSYNYPYTFGQGTKLEIK |
| 0.000428 s⁻¹ | 0.00676 s⁻¹ | M68: G1 variant; L1 R28N T30G; L2 L561; H2 E54K A57N S58D E64D; HC-FW3 L99T A100V (antibody, V domains shown) VH: EVQLVESGGGLVQPGGSLRLSCAASGFTFSNYWISWVRQAPGKGLEWVAEIRSKSDNDATHYADAVKGRFTISRDNAKNSLYLQMNSLRAEDTAVYYCTVYFDYGLAIQNYWGQGTLVTVSS VL: EIVLTQSPATLSLSPGERATLSCKASKNVGTYVSWYQQKPGQAPRLLIYGASNRYIGIPARFSGSGSGTDFTLTISSLEPEDFAVYYCSQSYNYPYTFGQGTKLEIK |
| 0.000733 s⁻¹ | 0.00181 s⁻¹ | M69: G1 variant; L1 R28N T30G; L2 L561; H2 E54K A57N S58E; HC-FW3 L99T A100V (antibody, V domains shown) VH: EVQLVESGGGLVQPGGSLRLSCAASGFTFSNYWISWVRQAPGKGLEWVAEIRSKSDNEATHYAEAVKGRFTISRDNAKNSLYLQMNSLRAEDTAVYYCTVYFDYGLAIQNYWGQGTLVTVSS VL: EIVLTQSPATLSLSPGERATLSCKASKNVGTYVSWYQQKPGQAPRLLIYGASNRYIGIPARFSGSGSGTDFTLTISSLEPEDFAVYYCSQSYNYPYTFGQGTKLEIK |
| 0.000559 s⁻¹ | 0.00607 s⁻¹ | M70: G1 variant; L1 R28N T30G; L2 L561; H2 E54K A57S; HC-FW3 L99T A100V (antibody, V domains shown) VH: EVQLVESGGGLVQPGGSLRLSCAASGFTFSNYWISWVRQAPGKGLEWVAEIRSKSDSSATHYAEAVKGRFTISRDNAKNSLYLQMNSLRAEDTAVYYCTVYFDYGLAIQNYWGQGTLVTVSS VL: EIVLTQSPATLSLSPGERATLSCKASKNVGTYVSWYQQKPGQAPRLLIYGASNRYIGIPARFSGSGSGTDFTLTISSLEPEDFAVYYCSQSYNYPYTFGQGTKLEIK |
| 0.00116 s⁻¹ | 0.0187 s⁻¹ | M75: G1 variant; L1 R28N T30G; L2 L56S; H2 E54K A57V; HC-FW3 L99T A100V (antibody, V domains shown) VH: EVQLVESGGGLVQPGGSLRLSCAASGFTFSNYWISWVRQAPGKGLEWVAEIRSKSDVSATHYAEAVKGRFTISRDNAKNSLYLQMNSLRAEDTAVYYCTVYFDYGLAIQNYWGQGTLVTVSS VL: EIVLTQSPATLSLSPGERATLSCKASKNVGTYVSWYQQKPGQAPRLLIYGASNRYSGIPARFSGSGSGTDFTLTISSLEPEDFAVYYCSQSYNYPYTFGQGTKLEIK |
| 0.0004 s⁻¹ | 0.00395 s⁻¹ | M72: G1 variant; L1 R28N T30G; L2 L56S; H2 E54K; HC-FW3 L99T A100V (antibody, V domains shown) VH: EVQLVESGGGLVQPGGSLRLSCAASGFTFSNYWISWVRQAPGKGLEWVAEIRSKSDASATHYAEAVKGRFTISRDNAKNSLYLQMNSLRAEDTAVYYCTVYFDYGLAIQNYWGQGTLVTVSS VL: EIVLTQSPATLSLSPGERATLSCKASKNVGTYVSWYQQKPGQAPRLLIYGASNRYSGIPARFSGSGSGTDFTLTISSLEPEDFAVYYCSQSYNYPYTFGQGTKLEIK |
